From US9752119B2, “Substantially pure human retinal progenitor, forebrain progenitor, and retinal pigment epithelium cell cultures and methods of making the same” (Wisconsin Alumni Research Foundation, priority 2009, dated 2017)

What was measured:
[1] = system: human ESC cultures; assay: Mitf and Chx10 gene expression (qPCR) in human ESC cultures treated during optic vesicle and optic cup stages; format: cell-based; details: SU5402 added days 16-40, measured at day 40
Description: The columnar rosette cells found in the center of these colonies were denser than those cells in the periphery, so they were easily dislodged by this pipetting technique, leaving the non-rosette cells attached to the plate. We took care not to break up the lifted colonies during this step. Detached colonies were collected in a 15 ml conical tube and spun in a centrifuge at 600 rpm for 1 minute to effectively pellet the detached colonies while leaving most single cells in suspension in the culture medium. The supernatant was then aspirated from the tube and the clusters were re-suspended in 10 ml of Retinal Differentiation Medium (RDM) and transferred to a new T25 flask. RDM included DMEM/F12 (3:1) supplemented with 2% B27. […] Within 3-5 days after detachment of the cells (19th-21st day of the differentiation), neurospheres readily adopted one of two major appearances. […]
RT-PCR experiments were done as follows to check gene expression: Total RNA was isolated from cell cultures from various stages of differentiation using the RNAeasy® kit (Qiagen) and treated with DNAse I. Reverse transcription was performed with the Superscript III RT-PCR kit (Invitrogen). […] For quantitative RT-PCR (qPCR), reactions were performed with Sybr Green Supermix (Applied Biosystems) and the Opticon 2 DNA Engine and Opticon Monitor 2.02 software (MJ Research). […] Quantitative RT-PCR primers were run for 40 cycles.

[2] = system: human ESC; assay: Eye field specification from differentiating human ESC: Pax6 and Rx gene expression (RT-PCR/qPCR) and neuroepithelial colony formation; format: cell-based; details: for appearance of neuroepithelial colonies / expression of Pax6 and Rx: Wnt3A and BMP4 added together (100 ng/ml) over the first 10 days of differentiation; for appearance of neuroepithelial colonies: morphology at day 10; for expression of Pax6 and Rx: qPCR
Description: (1) Making human ESC aggregates: Human ESC were grown on irradiated MEFs to approximately 80% confluence in a 6-well plate. Upon reaching 80% confluence, the human ESC medium was aspirated off and 1 ml of dispase (1 mg/ml, Gibco #17105-041) solution was added to each well. After 5 minutes, the cells were examined for curling of human ESC colony edges, indicative of the colonies beginning to lift off of the plate. If noticeable curling was evident, the dispase solution was aspirated off of the plate and replaced with 1 ml of DMEM/F12 per well. The human ESC colonies were mechanically lifted from the plate by pipetting a few times with a 10 ml pipette. When all colonies were detached, the cells were transferred to a 15 ml conical tube and allowed to settle by gravity. After the aggregates had settled (˜5 minutes), the supernatant was aspirated and replaced with 10 ml of Embryoid Body (EB) medium, which contained DMEM/F12 (1:1) (Gibco #11330-065), 20% knockout serum replacement (Gibco #10828-028), 0.1 mM β-mercaptoethanol, 1 mM L-glutamine (Gibco #25030-081) and 1% MEM nonessential amino acids (Gibco #11140-050). The pellet of cells was resuspended by repeated pipetting 2-3 times with a 10 ml pipette, just enough to separate the individual aggregates while minimizing their dissociation. Aggregates were approximately 400 μm in diameter. These aggregates were then transferred to a T25 flask and placed in the incubator. The next day, the aggregates formed floating, sphere-like structures. (If significant attachment of human ESC and/or residual MEF cells was observed, the unattached aggregates were transferred to a new flask.) These cells were fed with fresh EB medium every day for the first 4 days.
(2) Differentiating to anterior neuroepithelial fate: The aggregates were then collected by settling in a 15 ml conical tube and washed once with 10 ml of DMEM/F12. Upon resettlement of the aggregates, the supernatant was removed and the aggregates were re-suspended in 10 ml of Neural Induction Medium (NIM) and transferred to a new T25 flask. NIM included DMEM/F12 (1:1) (Gibco #11330-065), 1% N2 supplement (Gibco #17502-048), 1% MEM nonessential amino acids (Gibco #11140-050), and 2 μg/ml heparin (Sigma #H-3149). Two days later, a 6-well plate was coated with laminin (20 μg/ml diluted in DMEM) and the coated plate was left in the incubator overnight. By this time, aggregates had become brighter and acquired clearly defined edges. The next day, approximately 50 aggregates were plated in each well of a 6 well plate. An additional 2 ml of fresh NIM was added to each well. The cells were then placed in the incubator, making sure the cells were distributed evenly in the plate by gently shaking the plate back and forth as well as side-to-side a few times. Within the first couple of days (by a total of 9 days), most aggregates attached to the laminin-coated surface. […]
RT-PCR experiments were done as follows to check gene expression: Total RNA was isolated from cell cultures from various stages of differentiation using the RNAeasy® kit (Qiagen) and treated with DNAse I. Reverse transcription was performed with the Superscript III RT-PCR kit (Invitrogen). […] For quantitative RT-PCR (qPCR), reactions were performed with Sybr Green Supermix (Applied Biosystems) and the Opticon 2 DNA Engine and Opticon Monitor 2.02 software (MJ Research). […]

[3] = system: hiPSCs; assay: Neural/retinal specification of hiPSCs after addition of BMP and Wnt inhibitors (immunocytochemistry, FACS); format: cell-based, human; details: for expression of Pax6: recombinant Dkk1 and Noggin added together from 2-4 days of differentiation, immunocytochemistry; for expression of Chx10: treatment with Dkk1 and Noggin together, after 20 days of differentiation, FACS
Description: Immunocytochemistry was done as follows to check protein expression: human ESC aggregates or neurospheres were plated onto poly-ornithine- and laminin-coated coverslips overnight to allow for attachment, and then fixed with 4% paraformaldehyde. Cells were then permeabilized in 0.2% Triton X-100 for 10 minutes. For Mitf immunocytochemistry, cells were incubated in ice-cold 90% methanol for 10 minutes as an additional permeabilization step. Labeled cells were visualized with either Alexafluor 488- or Cy3-conjugated secondary antibodies, and nuclei were counterstained with either Hoechst or To-Pro-3 nuclear dyes. Images were obtained from a Nikon TE600 fluorescent microscope equipped with a SPOT camera and software or from z-stacks of cell clusters obtained on a Nikon Cl Laser Scanning Confocal microscope.
FACS analysis was done as follows to quantify the percentage of cells acquiring expression of Pax6 and Rx: Cells were dissociated with either trypsin or Accutase® (Chem icon), washed with a fluorescence-activated cell sorting (FACS) buffer (PBS, 0.1% sodium azide, and 2% donkey serum), and fixed with 0.1% paraformaldehyde for 10 minutes. Cells were then permeabilized with ice-cold 90% methanol for 20 minutes and incubated overnight in primary antibodies at a concentration of 1 μg of antibody per 1 million cells in FACS buffer. Antibody information is found in Table 2. Immunostaining was then completed with either donkey-anti-mouse or donkey-anti-rabbit Alexa 488 secondary antibodies for 2 hours, after which cells were washed with FACS buffer, and then sorted with a Becton Dickinson FACSCaliber. Data retrieved from the sorting was analyzed with CellQuest Pro software (Becton Dickinson).
To test this hypothesis, inhibitors of BMP signaling (Noggin or Dorsomorphin) and Wnt signaling (Dkk-1 or XAV-939) were added to cultures from days 2 to 4 of differentiation, a timeframe that was shown in Example 1 to be prior to the onset of neural specification based on Pax6 and Rax expression. […] This was further confirmed through immunocytochemistry, where cells treated with BMP and Wnt inhibitors were more likely to express the neural transcription factors Pax6 and Sox1 as well as eye field transcription factors Lhx2 and Six6.

[4] = system: hiPSC-derived vesicular neurospheres; assay: RPE specification from hiPSC-derived vesicular neurospheres in the presence of Activin (bright field microscopy, qPCR); format: cell-based, human
Description: RT-PCR experiments were done as follows to check gene expression: Total RNA was isolated from cell cultures from various stages of differentiation using the RNAeasy® kit (Qiagen) and treated with DNAse I. Reverse transcription was performed with the Superscript III RT-PCR kit (Invitrogen). PCR was performed with GoTaq PCR master mix (Promega) and subsequent PCR products were run on 2% agarose gels. For quantitative RT-PCR (qPCR), reactions were performed with Sybr Green Supermix (Applied Biosystems) and the Opticon 2 DNA Engine and Opticon Monitor 2.02 software (MJ Research). All primer sets listed were run for 30 cycles at an annealing temperature of 60° C. unless otherwise noted. Quantitative RT-PCR primers were run for 40 cycles.
Activin signaling has previously been implicated in this cell fate determination and as such, we sought to determine if Activin could influence these cells to adopt an RPE fate. […] Based on this feature, these aggregates could be manually isolated to generate highly enriched populations of RPE. When plated onto a laminin-coated substrate and in the presence of the mitogens FGF2 and EGF, these cells were capable of proliferation and outgrowth from the aggregate (FIG. 18D). […] Further maturation of these treated cells confirms that Activin signaling plays a role in the acquisition of an RPE fate at the expense of the neural retina, as Activin-treated cultures expressed RPE-specific genes such as RPE65 at higher levels than the untreated cells, whereas untreated cells expressed higher levels of genes associated with the neural retina including Brn3A (FIG. 18E-F).

| Molecule | appearance of neuroepithelial colonies [2] | expression of Pax6 and Rx [2] | expression of Pax6 [3] | expression of Chx10 [3] | also measured |
| --- | --- | --- | --- | --- | --- |
| Cc1c[nH]c(/C=C2\C(=O)Nc3ccccc32)c1CCC(=O)O [SU5402] | – | – | – | – | increase in Mitf gene expression [1]: 11.8 fold; reduction of Chx10 expression [1]: 15.9 fold; Pax6 and Rx expression ([2]; 10 μM SU5402, day 10 of differentiation, RT-PCR): complete loss |
| BMP4: recombinant BMP4, added to differentiating human ESC (protein, UniProt P12644 293-408, looked up) Bone morphogenetic protein 4: SPKHHSQRARKKNKNCRRHSLYVDFSDVGWNDWIVAPPGYQAFYCHGDCPFPLADHLNSTNHAIVQTLVNSVNSSIPKACCVPTELSAISMLYLDEYDKVVLKNYQEMVVEGCGCR | abolished | abolished | – | – | – |
| Dkk1: recombinant Dkk1, inhibitor of Wnt signaling (protein, UniProt O94907 32-266, looked up) Dickkopf-related protein 1: TLNSVLNSNAIKNLPPPLGGAAGHPGSAVSAAPGILYPGGNKYQTIDNYQPYPCAEDEECGTDEYCASPTRGGDAGVQICLACRKRRKRCMRHAMCCPGNYCKNGICVSSDQNHFRGEIEETITESFGNDHSTLDGYSRRTTLSSKMYHTKGQEGSVCLRSSDCASGLCCARHFWSKICKPVLKEGQVCTKHRRKGSHGLEIFQRCYCGEGLSCRIQKDHHQASNSSRLHTCQRH | – | – | restored | increased | – |
| Activin: Activin-A added to vesicular neurosphere cultures to influence RPE fate (protein, UniProt P08476 311-426, looked up, Inhibin beta A chain) Inhibin beta A chain: GLECDGKVNICCKKQFFVSFKDIGWNDWIIAPSGYHANYCEGECPSHIAGTSGSSLSFHSTVINHYRMRGHSPFANLKSCCVPTKLRPMSMLYYDDGQNIIKKDIQNMIVEECGCS | – | – | – | – | development of pigmented, RPE-like phenotype ([4]; Activin added upon isolation of vesicular neurospheres until a total of 40 days of differentiation): a subset of the neurospheres was capable of developing a pigmented phenotype; expression of neural retinal-associated genes ([4]; Activin-A treated versus untreated vesicular spheres, qPCR): lower levels; expression of RPE-specific genes such as RPE65 ([4]; Activin-treated versus untreated cultures, qPCR): higher levels |
| Noggin: recombinant Noggin, inhibitor of BMP signaling (protein, UniProt Q13253 28-232, looked up) Noggin: QHYLHIRPAPSDNLPLVDLIEHPDPIFDPKEKDLNETLLRSLLGGHYDPGFMATSPPEDRPGGGGGAAGGAEDLAELDQLLRQRPSGAMPSEIKGLEFSEGLAQGKKQRLSKKLRRKLQMWLWSQTFCPVLYAWNDLGSRFWPRYVKVGSCFSKRSCSVPEGMVCKPSKSVHLTVLRWRCQRRGGQRCGWIPIQYPIISECKCSC | – | – | restored | increased | – |
| Wnt3A: recombinant Wnt3a, added to differentiating human ESC (protein, UniProt P56704 19-352, looked up) Protein Wnt-3a: SYPIWWSLAVGPQYSSLGSQPILCASIPGLVPKQLRFCRNYVEIMPSVAEGIKIGIQECQHQFRGRRWNCTTVHDSLAIFGPVLDKATRESAFVHAIASAGVAFAVTRSCAEGTAAICGCSSRHQGSPGKGWKWGGCSEDIEFGGMVSREFADARENRPDARSAMNRHNNEAGRQAIASHMHLKCKCHGLSGSCEVKTCWWSQPDFRAIGDFLKDKYDSASEMVVEKHRESRGWVETLRPRYTYFKVPTERDLVYYEASPNFCEPNPETGSFGTRDRTCNVSSHGIDGCDLLCCGRGHNARAERRREKCRCVFHWCCYVSCQECTRVYDVHTCK | abolished | abolished | – | – | – |
